Assay: soluble fraction after stress (log2 fold change); higher = more stays soluble; pooled small domains, quantitative proteomics
Settings: stress: 75 degC
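Also: 20 min heating vs room temperature control held 20 min.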

Row | Sequence | soluble fraction (log2)
1 | HMQRRHESTPIPADFDYAAVRGLSAEVQQKLERVRPLSIGQAQRIPGMTPAAISLLLVHLERQRRSRV | -1.24
2 | HMQRSVKNNDTVQVHYTGKLTNGQIFDSSIDKQPLEFQLGQGQIIPGFEKGLIDMTVSEKKTITIPEAEAY | 0.193
3 | HMQSAEMTLDREGQPVQVRVELTGNEARITFLSDQEQTREALDAGMAQLRELLEQQGMVLAGVTV | -0.00816
4 | HMQSDQLSDREREILRLIGSGRTNQEISQELQVSGSTVRTHLQHILDKLGLENRNQAVLYAIRIGLAAPP | -0.163
5 | HMQSHGSRIWTDITGNFTREASFIELAEGKVTLQLTDGRRTIISFEILSKKDQEYVLDIGDS | -2.77
6 | HMQSKDDLLDTFRVVKGNAALLNDQNKKLIRSLKVSSFGFTGITDQAAEVKKEMPDVLLEKASIEDILF | 0.0597
7 | HMQSLAAKINGYIVAQRTSIAAIAKEIGYSRVTVSRYLAGKYDSDPTGIEAKLAAFLAGQTGEE | -3.99
8 | HMQSNIHELQKKLNEALQALSEDHRAVVTMFDIQGMPHAEISKILGVSEGTVRSRLYYAHQQLQGHL | -1.11
9 | HMQSRYALLAGMLRARITEGDWVPGSAIPAETVLAKEHGVALGTMRQAIALLVSQGLLERQHGRGTFVRS | -1.58
10 | HMQSSDQTDNIYENAVSIVLETGKASASHLQRVLGIDYNLAAHLIDKMEDGGLLSPPNYLGHRDVYGYT | 0.317
11 | HMQTFNADDIEPIIKEILQENPKAISDFLTGNENVVKFLLGQVMKNTKGKANPKVIEELLINQLRELNN | -0.235
12 | HMQTGYHVRITASTLNVRRDHSASSAVATQVRRGEVYTIVDEYNNGGTLWGKLKSGAGWIALKYTQS | -3.39
13 | HMQTTITITNTVTGQKAQFPPPFNPMSLSKIGVDETFEKEVFVDGVDTFGYGLDGYLTFYELKDFLRSYQ | -2.61
14 | HMQVEYTRGELLQDLKEENVLYATITPSRETPTGEVDFVFKDKSIKTLYVTDVSEIEGLLMDYGIDPEVKK | -0.454
15 | HMQVITEPFQEKYREFINMSTVTQRLEERETLSFTAQTVEGRWLTIIIVPQGYDKTGKLSTVLVANR | 0.274
16 | HMQVSDEGAIQLLVQKAIEENPQAIEAFRGGKTSALGPVVGWVMKQSKGAANPTMVKTLLEKAI | 0.154
17 | HMQVVVEKSKEKVIISGNQYYIHIVKKGETAFSIAKAYGITVDELVKNNPSAATVLKEGQALRIPVVE | 0.0365
18 | HMQYDESSQLGERFLNQALNALKADPDKVGDAQWEKLLKENSAKSRQEVLADIGLGKQLAIVIARELLS | -0.148
19 | HMQYPSSLDSRAKQSLYDNLERNEILALALDNVIQSNKLDGWRDGGIKERKLRLAINNLLKNDEHTDNIME | -0.0341
20 | HMQYQIITENGKQYYLYTVQKSEGFYSIGKRFEITNDEIIKANPEAALGLKLGQVLKIPVYK | -2.4
21 | HMRAAKSEDTRTRLIEGGMALFGQKGYNATGIKDITDAAGVPKGSFYNYFASKEDFGAEIIHSY | 0.14
22 | HMRAEELEQFVERLKNEVMNNFPLKELSDNELREKIENLVEIRLANVYVSIEQRVAIAEQIYSSIR | -1.1
23 | HMRAERVQITDPYIELHTGPGRGFPIFFVAPREQWISIELRHTDWFKVRAVGGQVGWVQRKQLEST | -1.56
24 | HMRAGHDFEALKHIESSLDKHLTDEGIKIKSEKRGAIVARWYQSHVEGREVTDDDVHTWIELFF | -2.82
25 | HMRAPIGFRISNRRKSLKISQVALARLVGISPSYLNLIENNKRDVGGALLQRVALHLNIDIDDL | -3.13
26 | HMRARTLSTTGGESLLTLAESLYPDDDRARARFIEATAAANPKLFADIAALTRVLPAGTTLRMPDLRA | -0.0128

Row | Sequence | soluble fraction (log2)
27 | HMRARTQYWPFVEEKAAELKLPLHLVNVEPLFGEQKVVVHYTANGRIDFRELVHLLARRFHARIEMR | 0.0673
28 | HMRATLTDETARVVQEPTSESISLTSLRKGEEFEIGKVIRKKKEVWVTVTTSSGVKGYISGDTHIF | 0.00739
29 | HMRAVFEQLRIGQTLAGVVKAQEKGFSLVEIDGQTVAMRLPHPAAVGDTLRLRFAGHMPQAVFLLES | -1.99
30 | HMRAVPSIAFVTQKLIEQGVTMEQLVRSLLLDHEEYENDDSLERTADELFGKARMIISNYTPE | -1.08
31 | HMRDADRYAFMQENVEDFAKDMRRKHMTYDVLYEEYIRRTDNPYGYTQFKAIVQEYEKNHDYK | -0.367
32 | HMRDGYEKPTEVGEGGRNPAMLSYIGHLRAKGHLSEEDIRSMAHGFNATTFDPPLDRDEVDGLVSRY | 0.106
33 | HMRDITAQSNASELYFEERDLEAFIEKLERLYPEIRYVNRLMIHSWGQQVVRFFDPDGNLIEVGTP | -0.146
34 | HMRDKTMLGNVIRTRRKKMNLTLEELSKQVGITSGGLSQIERGLVDPSLSVLRRISRALNLPMNVMFSE | -1.32
35 | HMRDLAEAETILDALPTRLRKIVRWRHLEGLSQTEIAARLEISQMHVSRLYRRAISMIHASLADD | -0.289
36 | HMREEQELFRKLLEVNGIGPKVAAGMLAGGRPEDVVSAIRREDVAWLTKLPGIGRKTAQRIVLDLKDKLD | -0.331
37 | HMREPQMVTVNGDKVTHGHAYRSNVNPEDWYFTARINGQQLKPQKMEPADVAAYDKKEIGVPELMQR | -0.275
38 | HMRESPYRRVAKFLLLIGTAEAAKIVSRLDQDQVEKVMLELSGIRSVPRDEATVILAEFESLLQQAR | -2.03
39 | HMRESRLFQILYQLLTKKKVTAANLAKQFEVSVRTIYRDIDALSSSGIPIYASQGKNGGIQLDEDF | -0.992
40 | HMRETELPVTIISAGRILAENLHLAGRDGGWLEAELKRRSLTAEQVLLLTVDAAGTVYLVRKEDL | -2.1
41 | HMREWPLWEIFIRGQHGLNHRHVGSLHAPDAAMAIGNARDVYTRRNEGVSIWAVRSADVVASVPSE | -2.08
42 | HMRGADNAASILKEVGPHPEDGKPITVRSGRYGPYVKHGTTNATLPKDIKPEEITLDEAIALINERVAKG | 0.018
43 | HMRGGKGTVPDVTGMDAAAAVRILEKAGMNVAYIRGAGFVAEQTPAAGTKLKKGDKAYITLSWK | -0.622
44 | HMRGGWESLTDREREIAVLAAEGHSNRTIASTLFISDRTVQSHVSRALRALGVDSRTGIPSLVTTATR | 0.09
45 | HMRGWGTVKRRTPKSGRYRASYIGPDGKRYAADHTYAAKVDADAWLSSERALITAGVWTPPTDRVT | -0.688
46 | HMRHLSVPSQDTQQVLQRLKVELALPEGARVRSDPSDPGRRLIPFTESVPQEMIDQYPVVSINI | -0.147
47 | HMRIAGIDIPDNKRGEVALTYIFGIGRSSSKKILKSAGIDSDKQIGKWTDDESNLVRKLIRDEYTIEGDL | -0.312
48 | HMRIASANAIYDELLNKRDDAKLAELKQEDINLYALYILQNGSADERAALENTQGIDVVLKEIINLQNG | -0.305
49 | HMRIGINDRIHEIVDVLRLKKSTPFEDLFSGLVTRFDLVITFLALLEMGKLRLLRLYQTDPLAPLHVEYTG | -0.0164
50 | HMRILDFPALKTEFDQLTKDLMAKYPEDGADRVRAIIETVLGPGKKVGALQPHQAELLAEVNTSLKANL | -0.0738
51 | HMRILGIDPGTRITGYGIIDIEGNRLRHVDNGIIKTRSSDALPLRLKVIYDGLTAVLKQYSPQAV | 0.23
52 | HMRIQTVDYNTFISMVEDGKVDAAEIQQQENRILFSDQDQKVYKTAMVPDDDLTQRLLDAGVSTNG | 0.726

Row | Sequence | soluble fraction (log2)
53 | HMRISKRQLILESAAAIINEKGADYLTLDAVAQRAGISKGGLFYHFKSKDELIKELVNYANN | -1.56
54 | HMRISLKAQVYEYLKQAIINGDLKVGEIYSEQYFADKLSISRTPVREAILQLQHENMVEVKANRGIIVK | -2.73
55 | HMRITTKNYFKAISEVGFENLPEVLKKSHLVIEEKTNKGNDWGIYENDAEAKKVFDLAFDKLEEFIDRKED | 0.461
56 | HMRIVQTDYRNFLSQVESGAVRSVQIDETQIRYTALDSGGKEIVYNTGKVDDPGLVNRLYDAGVEFSQVIP | -0.132
57 | HMRKATEVPFTAFKDSIENSHGKLSKAGLARHLADEYGMSQRNMERRINNLIDNKTIKYGNEGGLVWIG | -0.104
58 | HMRKDWTPGAFVEAFVNDTPATRSTILAKAVSAGLSRWAADNLLRTADNDGLMVRQGSGKRNEPFTYRRGP | -0.257
59 | HMRKEEFIRELVLELKQNVSEQVILEQKRFYEEYILTEVRGGKTEEEVIASLSEPRLLAKSIIDAAEAGGD | -1.3
60 | HMRKKDGEAYVLPRPLKKGDSVLIYDIDKKGTVLQPPEKGGKTALIQAGIIQTRVPVSNLRLLE | 0.537
61 | HMRKKIIAQTLEEIRKSKGYSQKQVAAFIKVKPTTYNTYESGRTEPPAEILVRLSYLYRTPVDTLVQRDR | -2.13
62 | HMRKMNDAVFYVEMSRPKRGYYTATYKLITRNPNSLPEHEITRRFFQMLEETIRKNPPYYLWTH | -0.527
63 | HMRKPISQEIVDEVLKLAKNNPDWGYDRIAGVMKYLKYDVSATTVRHILDDNGIVPDPERRLR | 0.23
64 | HMRKRLLQLVHIGKSQLGMDDETYRSLLSQQFYQNSAKNISYSELVKLVKILQQKGAKIRLPH | -2.17
65 | HMRKVVLEEKEANYYAEPNSESELLGVLKRGIHLTVTDVKKEAGSDGWVKLVHPDGQEGWISGRARIRV | -0.212
66 | HMRKYKIKEELPDNIYKIIQDNPGIVQKDIYDILGREYQQNISSYIYSMDKNGVIKRDKHGNSYKLYL | -0.119
67 | HMRLATSELVYRIRALIRDQELQPGERLGSERALAQSLGISRSDLRMALAVLEASHEVIRKIGRAGGIVVS | -3.18
68 | HMRLHSSGEDYLKAIFILEAQHSSVRSVEVAEYMNVSKASVSHAVALLKKNGFLKMNQDYDLTER | -0.163
69 | HMRLIALPSVTDISIRQAEATLMSIGIKVSSIQYAPSEYKDLVLEVKYRGQSIIQGAKIPEGSSVVLVAGN | -3.21
70 | HMRLPLYLALAQTLRQEIDAKQYKIGAHLPPEDQLVVKYGVSRHTVRQALQELKNEGLITSKAGIGTIVSS | -1.56
71 | HMRLPQEVWEKIRAAYEAHGLSFSELAEMYGVNKSNISRRAKAEGWNQAETQRLITATVENE | 0.374
72 | HMRLREETRKVDKTGLIQVDGRHYRVPDEYSQKDVQILMDDNSIMVYRKGDFVIELDKETSVYMPH | 0.347
73 | HMRMETRILTADESGIRLDAFLASRLAVSRSLAASLIDDGNVTLNGTVPKKKTAVNVGDILEVAMP | -0.987
74 | HMRMLTKRRQDLLLELLEERGSITVSEVKDMLDASESTIRRDITALDEEGKLVKVFGGAVAAR | -0.345
75 | HMRMSRSARLFDLLHILRSHRRAVSGQALAQQLGISIRTLYRDIASLQAQGAKIEGEPGVGYMLKP | -1.82
76 | HMRMTKQRQAVLDELTRVTDFRSAQQIFEDLHSQGHRVGLATIYRSLQGLAEDGSVDTLRSSDGESLY | -0.206
77 | HMRMTRQRKVILEELGKVYTHPTADEIYTMVKEKLPNISLGTVYRNLDLLAENNQVLKLETAGNIRRYD | -0.17
